Assay results from patent US20260015399A1 (Boehringer Ingelheim, published 2026).
*1 amine or outer side, *2 acyl side, *3 side chain or, on linkers, in order; H or OH if unused. Side-chain parts run from the residue outwards. The star is where a group is joined. C18 diacid = O=C(O)CCCCCCCCCCCCCCCCC(=O)*; γGlu = O=C(O)[C@H](CCC(=O)[*:2])N[*:1]; Isovaleryl = CC(C)CC(=O)*; Ahx = NCCCCCC(=O)O

T1: human NPY2 receptor (human, UniProt P49146 1-381)
T1 construct: whole, on cells; also called hNPY2-R; hNPY2R
T1 sequence (looked up): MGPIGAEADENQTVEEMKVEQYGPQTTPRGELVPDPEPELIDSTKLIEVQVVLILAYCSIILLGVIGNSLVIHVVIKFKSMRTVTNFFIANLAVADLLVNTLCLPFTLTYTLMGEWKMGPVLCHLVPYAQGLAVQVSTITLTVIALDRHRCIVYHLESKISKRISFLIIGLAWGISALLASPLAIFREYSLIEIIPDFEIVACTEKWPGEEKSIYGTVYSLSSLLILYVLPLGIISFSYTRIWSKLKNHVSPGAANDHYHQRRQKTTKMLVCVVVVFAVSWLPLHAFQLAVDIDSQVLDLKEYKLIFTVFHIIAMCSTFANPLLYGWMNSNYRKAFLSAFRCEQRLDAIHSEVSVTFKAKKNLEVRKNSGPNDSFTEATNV


molecular target: T1, human NPY2 receptor; assay: RLB: displacement of 125I-PYY(1-36) from hNPY2R membranes
Method: The filtration RLB assay was carried out in 96-well plates in a final volume of 100 μl per well. Freeze-dried test peptides were dissolved in 100% dimethyl sulfoxide (DMSO) to stock solutions of 1 mM and serial dilutions were performed in assay buffer (50 mM HEPES, 5 mM MgCl₂, 1 mM CaCl₂), pH 7.4) containing 0.2% ovalbumin. […] Next, 80 μL membranes (HTS066M, ChemiSCREEN™ Human Neuropeptide Y2 Receptor Membrane Preparation, CHEMICON) were added to each well to give a final protein concentration of 0.5 μg/well. The plates were sealed and incubated at room temperature for 2 hours in a plate shaker set at 400 rpm. The incubation was stopped by vacuum filtration onto 0.5% polyethylene amine (PEI) presoaked GF/C filters using a 96-well FilterMate™ harvester (Perkin Elmer) followed by four washes with 300 μl/well ice-cold wash buffer (50 mM HEPES, 500 mM NaCl, pH7.4). Filter plates were then dried for 60 min at room temperature and the bottom of the plates was sealed with backing tape UniFilter-96. Finally, 50 μl/well scintillation counter cocktail (Microscint20, Packard) was added and the radioactivity was counted in the Packard TopCount NXT scintillation counter. IC₅₀ values (the half maximal inhibitory concentration of the agonist) were calculated by nonlinear regression analysis of sigmoidal dose-response curves.

Binder	Ki [nM]
Isovaleryl-APEK([Ahx-γGlu-C18 diacid])PEEDETPEELQRYYVSLRHYYNWLTRQRY-NH2 (SMILES CC(C)CC(=O)N[C@@H](C)C(=O)N1CCC[C@H]1C(=O)N[C@@H](CCC(=O)O)C(=O)N[C@@H](CCCCNC(=O)CCCCCNC(=O)CC[C@H](NC(=O)CCCCCCCCCCCCCCCCC(=O)O)C(=O)O)C(=O)N1CCC[C@H]1C(=O)N[C@@H](CCC(=O)O)C(=O)N[C@@H](CCC(=O)O)C(=O)N[C@@H](CC(=O)O)C(=O)N[C@@H](CCC(=O)O)C(=O)N[C@H](C(=O)N1CCC[C@H]1C(=O)N[C@@H](CCC(=O)O)C(=O)N[C@@H](CCC(=O)O)C(=O)N[C@@H](CC(C)C)C(=O)N[C@@H](CCC(N)=O)C(=O)N[C@@H](CCCNC(=N)N)C(=O)N[C@@H](Cc1ccc(O)cc1)C(=O)N[C@@H](Cc1ccc(O)cc1)C(=O)N[C@H](C(=O)N[C@@H](CO)C(=O)N[C@@H](CC(C)C)C(=O)N[C@@H](CCCNC(=N)N)C(=O)N[C@@H](Cc1c[nH]cn1)C(=O)N[C@@H](Cc1ccc(O)cc1)C(=O)N[C@@H](Cc1ccc(O)cc1)C(=O)N[C@@H](CC(N)=O)C(=O)N[C@@H](Cc1c[nH]c2ccccc12)C(=O)N[C@@H](CC(C)C)C(=O)N[C@H](C(=O)N[C@@H](CCCNC(=N)N)C(=O)N[C@@H](CCC(N)=O)C(=O)N[C@@H](CCCNC(=N)N)C(=O)N[C@@H](Cc1ccc(O)cc1)C(N)=O)[C@@H](C)O)C(C)C)[C@@H](C)O) [Compound 8]	106
Isovaleryl-APEK([Ahx-γGlu-C18 diacid])PEEDATPEEIQRYYPSLRHYYNWLTRQRY-NH2 (SMILES CC[C@H](C)[C@H](NC(=O)[C@H](CCC(=O)O)NC(=O)[C@H](CCC(=O)O)NC(=O)[C@@H]1CCCN1C(=O)[C@@H](NC(=O)[C@H](C)NC(=O)[C@H](CC(=O)O)NC(=O)[C@H](CCC(=O)O)NC(=O)[C@H](CCC(=O)O)NC(=O)[C@@H]1CCCN1C(=O)[C@H](CCCCNC(=O)CCCCCNC(=O)CC[C@H](NC(=O)CCCCCCCCCCCCCCCCC(=O)O)C(=O)O)NC(=O)[C@H](CCC(=O)O)NC(=O)[C@@H]1CCCN1C(=O)[C@H](C)NC(=O)CC(C)C)[C@@H](C)O)C(=O)N[C@@H](CCC(N)=O)C(=O)N[C@@H](CCCNC(=N)N)C(=O)N[C@@H](Cc1ccc(O)cc1)C(=O)N[C@@H](Cc1ccc(O)cc1)C(=O)N1CCC[C@H]1C(=O)N[C@@H](CO)C(=O)N[C@@H](CC(C)C)C(=O)N[C@@H](CCCNC(=N)N)C(=O)N[C@@H](Cc1c[nH]cn1)C(=O)N[C@@H](Cc1ccc(O)cc1)C(=O)N[C@@H](Cc1ccc(O)cc1)C(=O)N[C@@H](CC(N)=O)C(=O)N[C@@H](Cc1c[nH]c2ccccc12)C(=O)N[C@@H](CC(C)C)C(=O)N[C@H](C(=O)N[C@@H](CCCNC(=N)N)C(=O)N[C@@H](CCC(N)=O)C(=O)N[C@@H](CCCNC(=N)N)C(=O)N[C@@H](Cc1ccc(O)cc1)C(N)=O)[C@@H](C)O) [Compound 17]	24.6
Isovaleryl-APAK([Ahx-γGlu-C18 diacid])PEEDASPEELQRYQVSLRHYYNWLTRQRY-NH2 (SMILES CC(C)CC(=O)N[C@@H](C)C(=O)N1CCC[C@H]1C(=O)N[C@@H](C)C(=O)N[C@@H](CCCCNC(=O)CCCCCNC(=O)CC[C@H](NC(=O)CCCCCCCCCCCCCCCCC(=O)O)C(=O)O)C(=O)N1CCC[C@H]1C(=O)N[C@@H](CCC(=O)O)C(=O)N[C@@H](CCC(=O)O)C(=O)N[C@@H](CC(=O)O)C(=O)N[C@@H](C)C(=O)N[C@@H](CO)C(=O)N1CCC[C@H]1C(=O)N[C@@H](CCC(=O)O)C(=O)N[C@@H](CCC(=O)O)C(=O)N[C@@H](CC(C)C)C(=O)N[C@@H](CCC(N)=O)C(=O)N[C@@H](CCCNC(=N)N)C(=O)N[C@@H](Cc1ccc(O)cc1)C(=O)N[C@@H](CCC(N)=O)C(=O)N[C@H](C(=O)N[C@@H](CO)C(=O)N[C@@H](CC(C)C)C(=O)N[C@@H](CCCNC(=N)N)C(=O)N[C@@H](Cc1c[nH]cn1)C(=O)N[C@@H](Cc1ccc(O)cc1)C(=O)N[C@@H](Cc1ccc(O)cc1)C(=O)N[C@@H](CC(N)=O)C(=O)N[C@@H](Cc1c[nH]c2ccccc12)C(=O)N[C@@H](CC(C)C)C(=O)N[C@H](C(=O)N[C@@H](CCCNC(=N)N)C(=O)N[C@@H](CCC(N)=O)C(=O)N[C@@H](CCCNC(=N)N)C(=O)N[C@@H](Cc1ccc(O)cc1)C(N)=O)[C@@H](C)O)C(C)C) [Compound 20]	2.41

More lines, now with the values ahead:

Ki [nM]	Binder
3.32	Isovaleryl-APEK([Ahx-γGlu-C18 diacid])PEEQATPEELQRYYVSLRHYYNWLTRQRY-NH2 (SMILES CC(C)CC(=O)N[C@@H](C)C(=O)N1CCC[C@H]1C(=O)N[C@@H](CCC(=O)O)C(=O)N[C@@H](CCCCNC(=O)CCCCCNC(=O)CC[C@H](NC(=O)CCCCCCCCCCCCCCCCC(=O)O)C(=O)O)C(=O)N1CCC[C@H]1C(=O)N[C@@H](CCC(=O)O)C(=O)N[C@@H](CCC(=O)O)C(=O)N[C@@H](CCC(N)=O)C(=O)N[C@@H](C)C(=O)N[C@H](C(=O)N1CCC[C@H]1C(=O)N[C@@H](CCC(=O)O)C(=O)N[C@@H](CCC(=O)O)C(=O)N[C@@H](CC(C)C)C(=O)N[C@@H](CCC(N)=O)C(=O)N[C@@H](CCCNC(=N)N)C(=O)N[C@@H](Cc1ccc(O)cc1)C(=O)N[C@@H](Cc1ccc(O)cc1)C(=O)N[C@H](C(=O)N[C@@H](CO)C(=O)N[C@@H](CC(C)C)C(=O)N[C@@H](CCCNC(=N)N)C(=O)N[C@@H](Cc1c[nH]cn1)C(=O)N[C@@H](Cc1ccc(O)cc1)C(=O)N[C@@H](Cc1ccc(O)cc1)C(=O)N[C@@H](CC(N)=O)C(=O)N[C@@H](Cc1c[nH]c2ccccc12)C(=O)N[C@@H](CC(C)C)C(=O)N[C@H](C(=O)N[C@@H](CCCNC(=N)N)C(=O)N[C@@H](CCC(N)=O)C(=O)N[C@@H](CCCNC(=N)N)C(=O)N[C@@H](Cc1ccc(O)cc1)C(N)=O)[C@@H](C)O)C(C)C)[C@@H](C)O) [Compound 9]
1.53	Isovaleryl-APEK([Ahx-γGlu-C18 diacid])PEADASPEETQRYYVSLRHYYNWLTRQRY-NH2 (SMILES CC(C)CC(=O)N[C@@H](C)C(=O)N1CCC[C@H]1C(=O)N[C@@H](CCC(=O)O)C(=O)N[C@@H](CCCCNC(=O)CCCCCNC(=O)CC[C@H](NC(=O)CCCCCCCCCCCCCCCCC(=O)O)C(=O)O)C(=O)N1CCC[C@H]1C(=O)N[C@@H](CCC(=O)O)C(=O)N[C@@H](C)C(=O)N[C@@H](CC(=O)O)C(=O)N[C@@H](C)C(=O)N[C@@H](CO)C(=O)N1CCC[C@H]1C(=O)N[C@@H](CCC(=O)O)C(=O)N[C@@H](CCC(=O)O)C(=O)N[C@H](C(=O)N[C@@H](CCC(N)=O)C(=O)N[C@@H](CCCNC(=N)N)C(=O)N[C@@H](Cc1ccc(O)cc1)C(=O)N[C@@H](Cc1ccc(O)cc1)C(=O)N[C@H](C(=O)N[C@@H](CO)C(=O)N[C@@H](CC(C)C)C(=O)N[C@@H](CCCNC(=N)N)C(=O)N[C@@H](Cc1c[nH]cn1)C(=O)N[C@@H](Cc1ccc(O)cc1)C(=O)N[C@@H](Cc1ccc(O)cc1)C(=O)N[C@@H](CC(N)=O)C(=O)N[C@@H](Cc1c[nH]c2ccccc12)C(=O)N[C@@H](CC(C)C)C(=O)N[C@H](C(=O)N[C@@H](CCCNC(=N)N)C(=O)N[C@@H](CCC(N)=O)C(=O)N[C@@H](CCCNC(=N)N)C(=O)N[C@@H](Cc1ccc(O)cc1)C(N)=O)[C@@H](C)O)C(C)C)[C@@H](C)O) [Compound 13]
9.63	Isovaleryl-APEK([Ahx-γGlu-C18 diacid])PEEDATEEELQRYYVSLRHYYNWLTRQRY-NH2 (SMILES CC(C)CC(=O)N[C@@H](C)C(=O)N1CCC[C@H]1C(=O)N[C@@H](CCC(=O)O)C(=O)N[C@@H](CCCCNC(=O)CCCCCNC(=O)CC[C@H](NC(=O)CCCCCCCCCCCCCCCCC(=O)O)C(=O)O)C(=O)N1CCC[C@H]1C(=O)N[C@@H](CCC(=O)O)C(=O)N[C@@H](CCC(=O)O)C(=O)N[C@@H](CC(=O)O)C(=O)N[C@@H](C)C(=O)N[C@H](C(=O)N[C@@H](CCC(=O)O)C(=O)N[C@@H](CCC(=O)O)C(=O)N[C@@H](CCC(=O)O)C(=O)N[C@@H](CC(C)C)C(=O)N[C@@H](CCC(N)=O)C(=O)N[C@@H](CCCNC(=N)N)C(=O)N[C@@H](Cc1ccc(O)cc1)C(=O)N[C@@H](Cc1ccc(O)cc1)C(=O)N[C@H](C(=O)N[C@@H](CO)C(=O)N[C@@H](CC(C)C)C(=O)N[C@@H](CCCNC(=N)N)C(=O)N[C@@H](Cc1c[nH]cn1)C(=O)N[C@@H](Cc1ccc(O)cc1)C(=O)N[C@@H](Cc1ccc(O)cc1)C(=O)N[C@@H](CC(N)=O)C(=O)N[C@@H](Cc1c[nH]c2ccccc12)C(=O)N[C@@H](CC(C)C)C(=O)N[C@H](C(=O)N[C@@H](CCCNC(=N)N)C(=O)N[C@@H](CCC(N)=O)C(=O)N[C@@H](CCCNC(=N)N)C(=O)N[C@@H](Cc1ccc(O)cc1)C(N)=O)[C@@H](C)O)C(C)C)[C@@H](C)O) [Compound 19]
